Results taken from patent US20150175665A1 (IPSEN PHARMA S A S, published 2015).
[ ]: non-standard residue; d: D form. The star is where a group is joined. Desaminotyrosyl = O=C(CCc1ccc(O)cc1)*; Hyp = O=C(O)[C@@H]1C[C@@H](O)CN1; Pip = O=C(O)[C@@H]1CCCCN1; Ac6c = NC1(C(=O)O)CCCCC1

T1: human recombinant GIP receptor (human, UniProt P48546 22-466)
T1 construct: whole, on cells; Assayed as washed membranes of CHO-K1 cells expressing the receptor; also called hGIP receptor
T1 sequence (looked up): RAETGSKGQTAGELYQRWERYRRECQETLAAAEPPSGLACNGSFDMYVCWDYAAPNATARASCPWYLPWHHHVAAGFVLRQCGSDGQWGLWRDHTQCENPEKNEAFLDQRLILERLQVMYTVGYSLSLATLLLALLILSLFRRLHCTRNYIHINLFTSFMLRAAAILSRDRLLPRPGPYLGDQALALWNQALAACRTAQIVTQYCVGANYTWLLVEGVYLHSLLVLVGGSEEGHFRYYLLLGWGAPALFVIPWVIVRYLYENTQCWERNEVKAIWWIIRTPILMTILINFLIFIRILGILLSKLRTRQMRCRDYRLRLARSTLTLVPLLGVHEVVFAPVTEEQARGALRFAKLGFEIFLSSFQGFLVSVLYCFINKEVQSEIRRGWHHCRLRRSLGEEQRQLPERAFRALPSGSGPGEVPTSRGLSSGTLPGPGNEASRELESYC


Biological target: T1, human recombinant GIP receptor
Assay: displacement of [125I]GIP, membranes of CHO-K1 cells expressing human GIP receptor
Method: Membranes for in vitro receptor binding assays were prepared by homogenizing the CHO—K1 clonal cells expressing the human recombinant GIP receptor, with a Brinkman Polytron (setting 6, 15 sec), in ice-cold 50 mM Tris-HCl and then subjected to two centrifugations at 39,000 g for 10 minutes, with a resuspension in fresh buffer in between. For the assay, aliquots of the washed membrane preparations were incubated (100 minutes at 25° C. with 0.05 nM [¹²⁵1]GIP (2200 Ci/mmol) in 50 mM Tris-HCl, 0.1 mg/ml bacitracin, and 0.1% BSA. The final assay volume was 0.5 ml. The incubations were terminated by rapid filtration through GF/C filters (pre-soaked in 0.5% polyethylenimine) using a Brandel filtration manifold. Each tube and filter were then washed three times with 5-ml aliquots of ice-cold buffer.
Specific binding was defined as the total radioligand bound minus that bound in the presence of 1000 nM GIP.

Binder | Ki
XXEGTFISDYSIAXDKIHQQDFVNWLLAQK (4Hppa at 1; Aib at 2; Nle at 14; C-terminal amide) [(4Hppa^1, Aib^2, Nle^14)hGIP(1-30)-NH2] | 2.95 nM
XXEGTFISDYSIAMDKIHQQDFVNWLLAQK (4Hppa at 1; Aib at 2; C-terminal amide) [(4Hppa^1, Aib^2)hGIP(1-30)-NH2] | 1.58 nM
[Desaminotyrosyl]A[Hyp]GTF[Ac6c]SDYSIAMDKIHQQDFVNWLLAQKGKKNDWKHNITQ-OH [(4Hppa^1, 4Hyp^3, A6c^7)hGIP(1-42)-OH] | 251 nM
FXEGTFISDYXIAMDKIHQQDFVNWLLAQKGKKNDWKHNITQH (4CN-Phe at 1; Aib at 2; A5c at 11) [(4CN-Phe^1, Aib^2, A5c^11, His^43)hGIP(1-43)-OH] | 5.12 nM

The next lines start with the values.

Ki | Binder
707 nM | [Desaminotyrosyl]A[Pip]GTF[Ac6c]SDYSIAMDKIHQQDFVNWLLAQKGKKNDWKHNITQ-OH [(4Hppa^1, hPro^3, A6c^7)hGIP(1-42)-OH]
4.82 nM | XXEGTFISDYXIAMDKIHQQDFVNWLLAQKGKKNDWKHNITQH (7HO-Tic at 1; Aib at 2; A5c at 11) [(7HO-Tic^1, Aib^2, A5c^11, His^43)hGIP(1-43)-OH]
9.42 nM | XXEGTFISDYXIAMDKIHQQDFVNWLLAQKGKKNDWKHNITQH (hTyr at 1; Aib at 2; A5c at 11) [(hTyr^1, Aib^2, A5c^11, His^43)hGIP(1-43)-OH]
